Data: patent US20250163162A1 (SYNTHEKINE, published 2025)

T1: IL10Rα/IL2Rγ receptor (human, UniProt Q13651 22-578; P31785 23-369)
T1 sequence (looked up) 1: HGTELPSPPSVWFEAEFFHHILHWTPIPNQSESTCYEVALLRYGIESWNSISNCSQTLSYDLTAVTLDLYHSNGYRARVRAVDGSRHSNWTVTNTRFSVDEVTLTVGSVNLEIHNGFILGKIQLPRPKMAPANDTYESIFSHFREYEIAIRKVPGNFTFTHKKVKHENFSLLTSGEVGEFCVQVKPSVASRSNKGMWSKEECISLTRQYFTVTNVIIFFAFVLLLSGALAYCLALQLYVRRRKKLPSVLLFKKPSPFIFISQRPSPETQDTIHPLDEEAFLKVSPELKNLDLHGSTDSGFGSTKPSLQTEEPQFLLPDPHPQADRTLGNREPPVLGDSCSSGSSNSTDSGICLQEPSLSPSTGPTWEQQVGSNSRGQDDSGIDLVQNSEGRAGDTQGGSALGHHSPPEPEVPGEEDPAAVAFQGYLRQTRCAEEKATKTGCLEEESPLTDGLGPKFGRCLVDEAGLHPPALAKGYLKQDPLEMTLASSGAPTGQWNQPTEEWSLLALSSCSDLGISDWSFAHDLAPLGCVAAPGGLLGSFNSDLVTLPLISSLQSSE
T1 sequence (looked up) 2: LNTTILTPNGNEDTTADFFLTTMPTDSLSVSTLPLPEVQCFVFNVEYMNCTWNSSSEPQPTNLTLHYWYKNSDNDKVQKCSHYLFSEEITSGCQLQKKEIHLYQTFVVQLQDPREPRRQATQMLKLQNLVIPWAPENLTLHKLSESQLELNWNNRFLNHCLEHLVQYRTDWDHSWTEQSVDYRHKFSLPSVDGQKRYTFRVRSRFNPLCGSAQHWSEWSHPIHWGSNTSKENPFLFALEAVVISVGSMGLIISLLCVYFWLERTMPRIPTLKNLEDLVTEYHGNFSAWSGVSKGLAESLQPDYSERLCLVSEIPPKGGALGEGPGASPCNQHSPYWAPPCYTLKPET


Target: T1, IL10Rα/IL2Rγ receptor
Test: cell-based or functional assay

Row | Binder | pSTAT3 MFI, B cells, 100 nM (unstimulated 1045) | pSTAT3 MFI, CD4+ T cells, 100 nM (unstimulated 1778) | pSTAT3 MFI, CD8+ T cells, 100 nM (unstimulated 1288) | pSTAT3 MFI, Monocytes, 100 nM (unstimulated 1787) | pSTAT3 MFI, NK cells, 100 nM (unstimulated 1149)
1 | DR449(DR237-DR233) (bispecific antibody) QVQLQESGGGSVQAGGSLRLSCAASGYTYSMYCMGWFRQAPGKEREGVAQINSDGSTSYADSVKGRFTISKDNAKNTLYLQMNSLKPEDTAMYYCAADSRVYGGSWYERLCGPYTYEYNYWGQGTQVTVSSGGGSQVQLQESGGGSVQAGGSLRLSCTASGFTFDDSDMGWYRQAPGNECELVSTISSDGSTYYADSVKGRFTISQDNAKNTVYLQMNSLKPEDTAVYYCAAEPRGYYSNYGGRRECNYWGQGTQVTVSSASHHHHHH | 1090 MFI | 2700 MFI | 1880 MFI | 1880 MFI | 1250 MFI
2 | DR438(DR235-DR234) (bispecific antibody) QVQLQESGGGSVQAGGSLRLSCAASRYLYSIDYMAWFRQSPGKEREPVAVIYTASGATFYPDSVKGRFTISQDNAKMTVYLQMNSLKSEDTAMYYCAAVRKTDSYLFDAQSFTYWGQGTQVTVSSGGGSQVQLQESGGGSVQAGGSLRLSCVASGYTFSSYCMGWFRQAPGKEREGVAALGGGSTYYADSVKGRFTISQDNAKNTLYLQMNSLKPEDTAMYYCAAAWVACLEFGGSWYDLARYKHWGQGTQVTVSSASHHHHHH | 1050 MFI | 2780 MFI | 1830 MFI | 1810 MFI | 1170 MFI

Further lines, results first:

Row | pSTAT3 MFI, B cells, 100 nM (unstimulated 1045) | pSTAT3 MFI, CD4+ T cells, 100 nM (unstimulated 1778) | pSTAT3 MFI, CD8+ T cells, 100 nM (unstimulated 1288) | pSTAT3 MFI, Monocytes, 100 nM (unstimulated 1787) | pSTAT3 MFI, NK cells, 100 nM (unstimulated 1149) | Binder
3 | 1030 MFI | 3770 MFI | 2460 MFI | 2320 MFI | 1230 MFI | DR474(DR241-DR234) (bispecific antibody) QVQLQESGGGSVQAGGSLRLSCAASGYSNCSYDMTWYRQAPGKEREFVSAIHSDGSTRYADSVKGRFFISQDNAKNTVYLQMNSLKPEDTAMYYCKTDPLHCRAHGGSWYSVRANYWGQGTQVTVSSGGGSQVQLQESGGGSVQAGGSLRLSCVASGYTFSSYCMGWFRQAPGKEREGVAALGGGSTYYADSVKGRFTISQDNAKNTLYLQMNSLKPEDTAMYYCAAAWVACLEFGGSWYDLARYKHWGQGTQVTVSSASHHHHHH
4 | 1050 MFI | 3110 MFI | 2100 MFI | 1790 MFI | 1220 MFI | DR442(DR236-DR232) (bispecific antibody) QVQLQESGGGSVQAGGSLRLSCAASRFTYSSYCMGWFRQAPGKEREGVASIDSDGSTSYTDSVKGRFTISKDNAKNTLYLQMNSLKPEDTAMYYCALDLMSTVVPGFCGFLLSAGMDYWGKGTQVTVSSGGGSQVQLQESGGGSVQAGGSLRLSCVASGYTSCMGWFRQAPGKEREAVATIYTRGRSIYYADSVKGRFTISQDNAKNTLYLQMNSLKPEDIAMYSCAAGGYSWSAGCEFNYWGQGTQVTVSSASHHHHHH
